Data: patent US20210347873A1 (SHANGHAI PHARMAEXPLORER, published 2021)

T1: cynomolgus BLyS (full length, arginine to histidine at position 132) on CHO-K1 cells (cynomolgus, UniProt Q9Y275 1-285 (human entry))
T1 construct: also called cyno BLyS; CHO-K1 cynoBLyS
T1 chain: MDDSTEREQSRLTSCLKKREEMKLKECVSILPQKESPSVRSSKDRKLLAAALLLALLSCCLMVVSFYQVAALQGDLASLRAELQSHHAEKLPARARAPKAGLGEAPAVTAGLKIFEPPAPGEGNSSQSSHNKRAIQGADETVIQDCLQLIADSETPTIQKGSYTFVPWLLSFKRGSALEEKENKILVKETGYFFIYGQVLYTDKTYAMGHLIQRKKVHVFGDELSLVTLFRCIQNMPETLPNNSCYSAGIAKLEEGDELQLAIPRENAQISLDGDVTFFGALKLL


Tests used:
mouse BLyS protein = mouse BLyS protein (mouse, UniProt Q9WU72 69-309); assay: cell-based or functional assay
[1] = target: T2, human BLyS (full length, arginine to histidine at position 132) on CHO-K1 cells (human, UniProt Q9Y275 1-285); assay: flow cytometry, CHO-K1 hBLyS cells, antibody 2.67 nM
T2 construct: also called hBLyS; CHO-K1 hBLyS

[2] = target: T2, human BLyS (full length, arginine to …); assay: flow cytometry, CHO-K1 hBLyS cells, antibody 66.7 nM
[3] = target: T1, cynomolgus BLyS (full length, arginine …); assay: flow cytometry, CHO-K1 cynoBLyS cells, antibody 0 nM
[4] = target: T2, human BLyS (full length, arginine to …); assay: flow cytometry, CHO-K1 hBLyS cells, antibody 0.107 nM
[5] = target: T2, human BLyS (full length, arginine to …); assay: flow cytometry, CHO-K1 hBLyS cells, antibody 0.00427 nM
[6] = target: T1, cynomolgus BLyS (full length, arginine …); assay: flow cytometry, CHO-K1 cynoBLyS cells, antibody 13.3 nM
[7] = target: T1, cynomolgus BLyS (full length, arginine …); assay: flow cytometry, CHO-K1 cynoBLyS cells, antibody 2.67 nM
[8] = target: T1, cynomolgus BLyS (full length, arginine …); assay: flow cytometry, CHO-K1 cynoBLyS cells, antibody 0.107 nM

T2 sequence (Q9Y275 whole entry R130H): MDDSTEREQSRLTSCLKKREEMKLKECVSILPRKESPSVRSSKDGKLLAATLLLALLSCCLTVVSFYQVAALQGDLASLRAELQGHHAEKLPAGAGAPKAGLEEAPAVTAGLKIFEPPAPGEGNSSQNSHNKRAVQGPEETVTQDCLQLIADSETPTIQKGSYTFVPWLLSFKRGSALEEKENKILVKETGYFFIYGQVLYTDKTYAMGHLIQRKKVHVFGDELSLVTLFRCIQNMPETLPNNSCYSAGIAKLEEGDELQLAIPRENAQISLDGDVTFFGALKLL
mouse BLyS protein, sequence (Q9WU72 69-309): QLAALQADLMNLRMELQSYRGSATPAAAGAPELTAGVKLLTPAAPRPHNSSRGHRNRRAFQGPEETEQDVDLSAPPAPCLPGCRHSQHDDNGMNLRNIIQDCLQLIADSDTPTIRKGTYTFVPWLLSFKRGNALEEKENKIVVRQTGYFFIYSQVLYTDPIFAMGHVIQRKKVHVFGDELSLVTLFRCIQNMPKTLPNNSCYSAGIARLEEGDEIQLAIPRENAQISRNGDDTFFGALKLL

| Binder | mouse B lymphocyte proliferation (OD450 nm), antibody 0 nM (mouse BLyS protein) [OD450 nm] | mouse B lymphocyte proliferation (OD450 nm), antibody 0.000256 nM (mouse BLyS protein) [OD450 nm] | mouse B lymphocyte proliferation (OD450 nm), antibody 0.00128 nM (mouse BLyS protein) [OD450 nm] | mouse B lymphocyte proliferation (OD450 nm), antibody 0.0064 nM (mouse BLyS protein) [OD450 nm] | mouse B lymphocyte proliferation (OD450 nm), antibody 0.032 nM (mouse BLyS protein) [OD450 nm] | mouse B lymphocyte proliferation (OD450 nm), antibody 0.16 nM (mouse BLyS protein) [OD450 nm] | mouse B lymphocyte proliferation (OD450 nm), antibody 0.8 nM (mouse BLyS protein) [OD450 nm] | mouse B lymphocyte proliferation (OD450 nm), antibody 4 nM (mouse BLyS protein) [OD450 nm] | mouse B lymphocyte proliferation (OD450 nm), antibody 20 nM (mouse BLyS protein) [OD450 nm] | mouse B lymphocyte proliferation (OD450 nm), antibody 100 nM (mouse BLyS protein) [OD450 nm] | MFI [1] [MFI] | MFI [2] [MFI] | MFI [3] [MFI] | MFI [4] [MFI] | MFI [5] [MFI] | MFI [6] [MFI] | MFI [7] [MFI] | MFI [8] [MFI] |
| --- | --- | --- | --- | --- | --- | --- | --- | --- | --- | --- | --- | --- | --- | --- | --- | --- | --- | --- |
| 2-1G11 (antibody, V domains shown, From a human naive scFv phage library; also called human BLyS antibody 2-1G11) VH: EVQLVESRGGVVQPGRSLRLSCAASGFTFSSYGMHWVRQAPGKGLEWVAVISYDGSNKYYADSVKGRFTISRDNSKNTLYLQMNSLRAEDAAVYYCARDRVDILTGYSIYGMDVWGQGTTVTVSS VL: EIVMTQSPATLSLSPGERATLSCRASQSVSSYLAWYQQKPGQAPRLLIYDASKRATGIPARFSGSGSGTDFTLTISSLEPEDFAVYYCQQRSNWPLTFGGGTKVEIK | 2320 | 2450 | 2560 | 2610 | 2470 | 2750 | 2820 | 2460 | 2680 | 2490 | 627 | 645 | 21.2 | 403 | 107 | 1450 | 1480 | 816 |
| L9G7 (antibody, V domains shown, From a human naive scFv phage library; also called human BLyS antibody L9G7) VH: QIQLVQSGAEVKKPGASVKVSCKASGYTFTSYGISWVRQAPGQGLEWMGWISAYNGNTNYAQKLQGRVTMTTDTSTSTAYMELRSLRSDDTAVYYCARTYYDILTGYYYYGMDVWGQGTTVTVSS VL: EIVLTQSPGTLSLSPGERATLSCRTSQSVDTYLAWYQQKPGQAPRLLIYDASNRATGIPARFSGSGSGTDFTLTISSLEPEDFAVYYCQQRSNWPLTFGGGTKVEIK | 2100 | 2430 | 2480 | 2460 | 2340 | 2260 | 640 | 308 | 243 | 221 | 591 | 697 | 20.6 | 226 | 51.6 | 1280 | 1280 | 387 |
| L1D12 (antibody, V domains shown, From a human naive scFv phage library; also called human BLyS antibody L1D12; LID12) VH: QVQLVQSGGGLVQPGGSLRLSCAASGFTVSSNYMSWVRQAPGKGLEWVSVIYSGGSTYYADSVKGRFTISRDNSKNTLYLQMNSLRAEDTAVYYCARGFHDILTGYGMDVWGQGTTVTVSS VL: SSELTQDPAVSVALGQTVRITCQGDSLRNYYAGWYQQKPGQAPVLVIYGKNNRPSGIPDRFSGSSSGNTASLTITGTQAEDEADYYCSSRDNSGTHLVEFGGGTKLTVL | 2340 | 2450 | 2610 | 2500 | 2460 | 2520 | 2410 | 2560 | 2460 | 2450 | 503 | 550 | 21.2 | 205 | 54.4 | 1130 | 1170 | 364 |
